Test results published in patent US7858322B2, “Method of determining inhibition of binding to TRPM7 protein” (NoNo, Inc., priority 2003, dated 2010).
Residues, ends and D or L forms follow the SMILES beside them. No end group written: not given here. *: point of attachment. Biotin = O=C1N[C@H]2[C@H](CS[C@H]2CCCCC(=O)*)N1

Assays:
INADL d3 [1] = biological target: T1, INADL d3 (Homo sapiens, UniProt Q8NI35); test: G3 assay, binding of biotinylated peptide to GST-PDZ fusion; conditions: G3 titration
T1 construct: made in house; host or cells: E. coli (DH5α, BL21 or JM109)
T1 sequence (Q8NI35 with tags, fused parts or gaps): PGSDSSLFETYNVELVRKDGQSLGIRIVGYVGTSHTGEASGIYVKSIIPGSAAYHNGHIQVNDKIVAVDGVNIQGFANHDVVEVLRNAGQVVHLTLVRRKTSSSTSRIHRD
Procedure: (§1) The G3 assay is identical to the G0 assay with the following exceptions. The peptides are typically present at 0.1 μM rather than 20 μM. The peptides are also pre-incubated with the HRP-streptavidin prior to adding to the assay plate. In the G0 assay, free peptide is incubated with the PDZ proteins prior to the addition of the HRP-streptavidin. Thus, for the G0 assay one can lose signal if the bound peptide dissociates from the PDZ protein prior to the addition of the HRP-streptavidin. In the G3 modified assay the HRP-streptavidin/peptide complex is added to the plate in one step, thus increasing the likelihood that all the bound peptide will be bound to HRP-streptavidin. The G3 modified assay increases the chance of observing weak interaactions.
(§2) Reagents and Supplies • Nunc MaxiSorp 96 well Immuno-plate, Nunc • PBS pH 7.4 (phosphate buffered saline, 8 g NaCl, 0.29 g KCl, 1.44 g Na2HPO4, 0.24 g KH2PO4, add H2O to 1 liter and pH 7.4; 0.2 μm filter) • Assay Buffer: 2% BSA in PBS (20 g of bovine serum albumin per liter PBS, fraction V, ICN Biomedicals, cat#IC15142983 • Goat anti-GST polyclonal Ab, stock 5 mg/ml, stored at 4° C., Amersham Pharmacia cat#27-4577-01 • Dilute 1:1000 in PBS, final concentration 5 μg/ml. • HRP-Streptavidin, 2.5 mg/2 ml stock stored at 4° C., Zymed cat#43-4323, dilute 1:2000 into Assay buffer, final concentration of 0.5 μg/ml • Wash Buffer, PBS • Biotinylated peptides (HPLC purified, stock solution stored in −20° C. freezer) • GST-PRISM proteins (stock stored at −80° C., after 1st thaw store in −10° C. freezer) • TMB (3,3′,5,5′, teramethylbensidine), tablets, Sigma cat.#T5525 • Per plate, dissolve 1 tablet in 1 ml DMSO, add 9 ml Citrate/Phosphate buffer pH 5.4 and 2 μL H2O2 • 0.18M H2SO4, Sigma cat.#S 1526 • 12-w multichannel pipettor & tips • 50 ml reagent reservoirs, Costar#4870 • 50, 15 ml polypropylene conical tubes • Costar Transtar 96 Costar #7605 • Transtar 96 Cartridge Costar #7610 • Molecular Devices microplate reader (450 & 650 nm filters) with SoftMax Pro software • When using reagents stored at or 4° C. or −20° C., remove & keep on ice
(§3) Protocol • 1. Coat plate with 100 μl of 5 μg/ml anti-GST, overnight at 4° C. • 2. Dump contents of plate & out tap dry on paper towels • 3. Block with 200 μl Assay Buffer for 2 hrs at room temperature • 4. Prepare proteins at 5 μg/ml in Assay Buffer • 5. Wash 3× with cold PBS (4° C.), avoiding letting the plates dry out • 6. Add proteins at 50 μl per well, incubate 1 to 2 hrs at 4° C. • 7. Prepare peptides to desired concentration in Assay Buffer • 8. Wash 3× with cold PBS (4° C.), avoiding letting the plates dry out • 9. Add HRP-Streptavidin/peptide complex [prepared by incubating for 20 minutes at room temperature HRP-Streptavidin (1:2000) with the desired biotin-peptide concentration for 20 minutes at room temperature] at 50 μl per well on ice • 10. Place at room temperature for exactly 30 minutes • 11. Promptly wash 5× with PBS at room temperature • 12. Add 100 μl/well TMB substrate (write time on plate) • 13. Incubate in dark at room temperature for a maximum of 30 minutes • 14. Read plate at 25 minutes (650 nm), optional • 15. Stop reaction with 100 μl of 0.18 M H2SO4, 30 minutes after adding TMB Take last reading at 450 nm soon after stopping reaction
(§4) The G3 assay was performed using 0.1 μM peptide representing 11 amino acids of Tat fused to the final 9 amino acids of TRPM7 ([…]; SEQ ID NO:258).
(§5) The G3 assay was performed on a subset of the PDZ domains as in Example II except that the concentration of peptide was 0.002 μM, […], 0.1 μM, 0.2 μM, 1 μM, and 2 μM.
(§6) to calculate the EC50 for the binding of the peptides to the PDZ domains.
(§7) FIGS. 10A and 10B show graphs of the titrations for the Peptide #1829 with ZO-1 d2 and for the Peptide #1839 with INADL d3.

ZO-1 d2 [2] = biological target: T2, ZO-1 d2 (Homo sapiens, UniProt Q07157, DEL264-264); test: as above; conditions: G3 titration
T2 construct: made in house; host or cells: E. coli (DH5α, BL21 or JM109)
T2 sequence (Q07157 with tags, fused parts or gaps DEL264-264): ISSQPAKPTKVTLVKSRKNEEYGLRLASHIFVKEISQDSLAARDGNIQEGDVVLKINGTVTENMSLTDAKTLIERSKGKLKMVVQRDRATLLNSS
Procedure: as §1, §2, §3, §4, §5, §6, §7

RIM2 d1 = biological target: T3, RIM2 d1 (Homo sapiens, UniProt Q9UQ26); test: G assays, titrations or binding assays of peptides; conditions: peptide demonstrated to bind RIM2 d1 in G assays
T3 construct: made in house; host or cells: E. coli (DH5α, BL21 or JM109)
T3 sequence (Q9UQ26 632-757): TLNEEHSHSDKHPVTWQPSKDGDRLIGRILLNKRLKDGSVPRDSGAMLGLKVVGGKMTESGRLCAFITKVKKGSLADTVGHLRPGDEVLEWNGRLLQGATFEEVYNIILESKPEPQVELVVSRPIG

ZO-1 d2 [3] = biological target: T2, ZO-1 d2; test: G assays, titrations or binding assays of peptides; conditions: peptide demonstrated to bind ZO-1 d2 in G assays
INADL d3 [4] = biological target: T1, INADL d3; test: G assays, titrations or binding assays of peptides; conditions: peptide demonstrated to bind INADL d3 in G assays
Procedure: (§8) In one aspect, the invention provides an assay in which a GST/PDZ fusion protein is immobilized on a surface (G assay). […] In a preferred embodiment, the assay is carried out as follows:
(§9) (3) The binding of the biotinylated peptide to the GST/PDZ fusion protein surface can be detected using a variety of methods and detectors known to one of skill in the art. In one embodiment, 100 μl per well of 0.5 μg/ml streptavidin-horseradish peroxidase (HRP) conjugate dissolved in BSA/PBS is added and allowed to react for 20 minutes at 4° C. The plate is then washed 5 times with 50 mM Tris pH 8.0 containing 0.2% Tween 20, and developed by addition of 100 μl per well of HRP-substrate solution (TMB, Dako) for 20 minutes at room temperature (RT). The reaction of the HRP and its substrate is terminated by addition of 100 μl per well of 1 M sulfuric acid, and the optical density (O.D.) of each well of the plate is read at 450 um.
(§10) (4) Specific binding of a PL peptide and a PDZ domain polypeptide is determined by comparing the signal from the well(s) in which the PL peptide and PDZ domain polypeptide are combined, with the background signal(s). […] Typically a specific or selective reaction will be at least twice background signal, more typically more than 5 times background, and most typically 10 or more times the background signal. […] Correspondingly, a statistical test (e.g. a T-test) comparing repeated measurements of the signal with repeated measurements of the background will result in a p-value <0.05, more typically a p-value <0.01, and most typically a p-value <0.001 or less. As noted, in an embodiment of the G assay, the signal from binding of a given PL peptide to immobilized (surface bound) GST polypeptide alone is one suitable negative control (sometimes referred to as B1). Because all measurement are done in multiples (i.e. at least duplicate) the arithmetic mean (or, equivalently, average.) of several measurements is used in determining the binding, and the standard error of the mean is used in determining the probable error in the measurement of the binding. The standard error of the mean of N measurements equals the square root of the following: the sum of the squares of the difference between each measurement and the mean, divided by the product of (N) and (N−1). Thus, in one embodiment, specific binding of the PDZ protein to the platebound peptide is determined by comparing the mean signal (“mean S”) and standard error of the signal (“SE”) for a particular PL-PDZ combination with the mean B1.

PAR3 d3 = biological target: T4, PAR3 d3 (Homo sapiens, UniProt Q8TEW0, R682S); test: G assays, titrations or binding assays of peptides; conditions: peptide demonstrated to bind PAR3 d3 in G assays
T4 construct: made in house; host or cells: E. coli (DH5α, BL21 or JM109)
Procedure: as §8, §9, §10

Syntrophin 1 alpha d1 = biological target: T5, Syntrophin 1 alpha d1 (Homo sapiens, UniProt Q13424); test: G assays, titrations or binding assays of peptides; conditions: peptide demonstrated to bind syntrophin 1 alpha d1 in G assays
T5 construct: made in house; host or cells: E. coli (DH5α, BL21 or JM109)
T5 sequence (Q13424 84-177): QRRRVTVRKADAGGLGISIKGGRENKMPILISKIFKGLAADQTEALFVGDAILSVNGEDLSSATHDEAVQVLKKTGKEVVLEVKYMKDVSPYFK
Procedure: In one aspect, the invention provides an assay in which a GST/PDZ fusion protein is immobilized on a surface (G assay). The binding of labeled PL peptide (e.g., as listed in TABLE 2 and TABLE 4) to this surface is then measured. In a preferred embodiment, the assay is carried out as follows:
(1) A PDZ-domain polypeptide is bound to a surface, e.g. a protein binding surface. In a preferred embodiment, a GST/PDZ fusion protein containing one or more PDZ domains is bound to a polystyrene 96-well plate. […] In one embodiment, the GST/PDZ fusion protein is bound via an anti-GST antibody that is coated onto the 96-well plate. Adequate binding to the plate can be achieved when: • a. 100 μl per well of 5 μg/ml goat anti-GST polyclonal antibody (Pierce) in PBS is added to a polystyrene 96-well plate (e.g., Nunc Polysorp) at 4° C. for 12 hours. • b. The plate is blocked by addition of 200 μl per well of PBS/BSA for 2 hours at 4° C. • c. The plate is washed 3 times with PBS. • d. 50 μl per well of 5 μg/ml GST/PDZ fusion protein) or, as a negative control, GST polypeptide alone (i.e. not a fusion protein) in PBS/BSA is added to the plate for 2 hours at 4° C. • e. the plate is again washed 3 times with PBS.
(2) Biotinylated PL peptides are allowed to react with the surface by addition of 50 μl per well of 20 μM solution of the biotinylated peptide in PBS/BSA for 10 minutes at 4° C., followed by an additional 20 minute incubation at 25° C. The plate is washed 3 times with ice cold PBS.
(3) The binding of the biotinylated peptide to the GST/PDZ fusion protein surface can be detected using a variety of methods and detectors known to one of skill in the art. In one embodiment, 100 μl per well of 0.5 μg/ml streptavidin-horseradish peroxidase (HRP) conjugate dissolved in BSA/PBS is added and allowed to react for 20 minutes at 4° C. The plate is then washed 5 times with 50 mM Tris pH 8.0 containing 0.2% Tween 20, and developed by addition of 100 μl per well of HRP-substrate solution (TMB, Dako) for 20 minutes at room temperature (RT). The reaction of the HRP and its substrate is terminated by addition of 100 μl per well of 1 M sulfuric acid, and the optical density (O.D.) of each well of the plate is read at […].
(4) Specific binding of a PL peptide and a PDZ domain polypeptide is determined by comparing the signal from the well(s) in which the PL peptide and PDZ domain polypeptide are combined, with the background signal(s). The background signal is the signal found in the negative control(s). Typically a specific or selective reaction will be at least twice background signal, more typically more than 5 times background, and most typically 10 or more times the background signal. In addition, a statistically significant reaction will involve multiple measurements of the reaction with the signal and the background differing by at least two standard errors, more typically four standard errors, and most typically six or more standard errors. Correspondingly, a statistical test (e.g. a T-test) comparing repeated measurements of the signal with repeated measurements of the background will result in a p-value <0.05, more typically a p-value <0.01, and most typically a p-value <0.001 or less. As noted, in an embodiment of the G assay, the signal from binding of a given PL peptide to immobilized (surface bound) GST polypeptide alone is one suitable negative control (sometimes referred to as B1). Because all measurement are done in multiples (i.e. at least duplicate) the arithmetic mean (or, equivalently, average.) of several measurements is used in determining the binding, and the standard error of the mean is used in determining the probable error in the measurement of the binding. The standard error of the mean of N measurements equals the square root of the following: the sum of the squares of the difference between each measurement and the mean, divided by the product of (N) and (N−1). […]

T4 sequence (Q8TEW0 with tags, fused parts or gaps R682S): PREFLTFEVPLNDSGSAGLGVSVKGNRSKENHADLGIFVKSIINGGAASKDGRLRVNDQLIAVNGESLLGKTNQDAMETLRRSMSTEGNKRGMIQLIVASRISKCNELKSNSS

POZ domain bound (RIM2 d1)	POZ domain bound (ZO-1 d2 [3])	POZ domain bound (INADL d3 [4])	POZ domain bound (PAR3 d3)	POZ domain bound (Syntrophin 1 alpha d1)	Compound	ODmax (450 nm) (INADL d3 [1])	ODmax (450 nm) (ZO-1 d2 [2])
RIM2 D1	ZO-1 D2	INADL D3	PAR3 D3	Syntrophin 1 alpha D1	DFRPSFKHILFRRARRGFRQ (Biotin-DFRPSFKHILFRRARRGFRQ)	–	–
RIM2 D1	ZO-1 D2	INADL D3	PAR3 D3	Syntrophin 1 alpha D1	SSKSKSSEESQTFFGLYKL (Biotin-SSKSKSSEESQTFFGLYKL)	–	–
RIM2 D1	ZO-1 D2	INADL D3	PAR3 D3	Syntrophin 1 alpha D1	RELVDRGEVRQFTLRHWLKV (Biotin-RELVDRGEVRQFTLRHWLKV)	–	–
RIM2 D1	ZO-1 D2	INADL D3	PAR3 D3	Syntrophin 1 alpha D1	HDFRRAFKKILARGDRKRIV (Biotin-HDFRRAFKKILARGDRKRIV)	–	–
RIM2 D1	ZO-1 D2	INADL D3	PAR3 D3	Syntrophin 1 alpha D1	LAVLAYSITLVMLWSIWQYA (Biotin-LAVLAYSITLVMLWSIWQYA)	–	–
RIM2 D1	ZO-1 D2	INADL D3	PAR3 D3	Syntrophin 1 alpha D1	QDFRRAFRRILARPWTQTAW (Biotin-QDFRRAFRRILARPWTQTAW)	–	–

Compound	POZ domain bound (RIM2 d1)	POZ domain bound (ZO-1 d2 [3])	POZ domain bound (INADL d3 [4])	POZ domain bound (PAR3 d3)	POZ domain bound (Syntrophin 1 alpha d1)	ODmax (450 nm) (INADL d3 [1])	ODmax (450 nm) (ZO-1 d2 [2])
CC[C@H](C)[C@H](NC(=O)[C@H](CC(C)C)NC(=O)[C@H](CCCNC(=N)N)NC(=O)[C@H](CCCNC(=N)N)NC(=O)[C@H](CCC(=O)O)NC(=O)[C@H](CC(=O)O)NC(=O)[C@H](CCC(N)=O)NC(=O)[C@H](CCCNC(=N)N)NC(=O)[C@H](CCCNC(=N)N)NC(=O)[C@H](CCCNC(=N)N)NC(=O)[C@H](CCC(N)=O)NC(=O)[C@H](CCCNC(=N)N)NC(=O)[C@H](CCCNC(=N)N)NC(=O)[C@H](CCCCN)NC(=O)[C@H](CCCCN)NC(=O)[C@H](CCCNC(=N)N)NC(=O)CNC(=O)[C@H](Cc1ccc(O)cc1)NC(=O)CCCC[C@@H]1SC[C@@H]2NC(=O)N[C@@H]21)C(=O)N[C@H](C(=O)N[C@@H](CC(C)C)C(=O)O)C(C)C [Peptide 1842] (Biotin-YGRKKRRQRRRQDERRLIVL-OH)	RIM2 D1	ZO-1 D2	–	–	–	1.90	2.30
Biotin-YGRKKRRQRRRSRTDRLEYV [Peptide 1846]	RIM2 D1	–	–	–	–	1.50	–
VHKVRNKFKAKCSLCRLYII (Biotin-VHKVRNKFKAKCSLCRLYII; cysteine pairing not given here)	RIM2 D1	ZO-1 D2	INADL D3	PAR3 D3	Syntrophin 1 alpha D1	–	–
